Literature values, collected in publication PMC7602216.

Molecular target: UBA5 UIS (Homo sapiens) (UniProt Q9GZZ9)
Assay: ITC

Kd: 8 µM
Substance: UFM1 (from UniProt P61960)
